Assay results from patent US20200165335A1 (Seagen, published 2020).
Positions count from the first letter of the chain named. Names may count otherwise. “And” between values parts separate entries of the source, which are not always exact repeats. Equal values may be shown once. Blank lines part the entries; values can stand above or below the binder they belong to.

How the values were obtained:
human LIV-1 [1] = target: T1, human LIV-1 (human, UniProt Q13433 29-755); assay: competition flow cytometry, CHO cells expressing recombinant LIV-1, vs 5 nM AF647-labelled BR2-22a
T1 construct: also called hLIV-1; Q13433
T1 sequence: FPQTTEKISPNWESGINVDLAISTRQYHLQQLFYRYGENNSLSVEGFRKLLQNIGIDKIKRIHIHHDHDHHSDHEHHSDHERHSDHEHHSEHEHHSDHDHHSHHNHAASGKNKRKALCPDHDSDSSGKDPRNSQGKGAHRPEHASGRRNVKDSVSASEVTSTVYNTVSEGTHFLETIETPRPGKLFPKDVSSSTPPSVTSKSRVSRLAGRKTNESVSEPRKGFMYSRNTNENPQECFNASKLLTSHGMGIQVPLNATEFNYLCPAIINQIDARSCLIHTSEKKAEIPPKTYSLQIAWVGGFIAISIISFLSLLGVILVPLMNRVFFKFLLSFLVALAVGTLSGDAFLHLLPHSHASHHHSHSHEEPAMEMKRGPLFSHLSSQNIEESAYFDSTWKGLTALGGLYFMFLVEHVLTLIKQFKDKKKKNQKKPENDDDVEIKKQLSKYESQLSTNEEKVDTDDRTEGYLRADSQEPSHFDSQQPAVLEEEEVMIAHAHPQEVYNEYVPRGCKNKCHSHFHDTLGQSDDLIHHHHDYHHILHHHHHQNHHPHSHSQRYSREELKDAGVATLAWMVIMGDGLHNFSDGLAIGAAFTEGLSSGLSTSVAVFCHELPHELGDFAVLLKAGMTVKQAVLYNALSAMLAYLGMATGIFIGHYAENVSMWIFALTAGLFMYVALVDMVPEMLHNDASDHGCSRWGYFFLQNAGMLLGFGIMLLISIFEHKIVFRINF
Method: (§1) 1×10⁵ CHO cells expressing recombinant LIV-1 in PBS were aliquoted into each well of a 96-well v-bottom plates on ice. […] Cells were pelleted and washed 3 times with PBS. The cells were then pelleted and resuspended in 125 μL of PBS/BSA. Fluorescence was analyzed by flow cytometery, using percent of saturated fluorescent signal to determine percent labeled humanized BR2-22a antibody bound and to subsequently extrapolate the EC50 by fitting the data to a sigmoidal dose-response curve with variable slope.
All permutations of these five heavy chains and six light chains were then tested in a competition assay compared with BR2-22a (see FIG. 17).

human LIV-1 [2] = target: T2, human LIV-1 (UniProt Q13433 29-755); assay: competition binding on CHO hLIV1 cells
T2 chain: T1 sequence

cynomolgus monkey LIV-1 [3] = target: T3, cynomolgus monkey LIV-1 (cynomolgus monkey, UniProt Q5R9M9 28-743 (Pongo abelii entry)); assay: EC50 determination, CHO cells expressing recombinant cyno LIV-1
T3 construct: Recombinant on transfected CHO cells; also called cyno LIV-1; cyLIV-1
T3 chain: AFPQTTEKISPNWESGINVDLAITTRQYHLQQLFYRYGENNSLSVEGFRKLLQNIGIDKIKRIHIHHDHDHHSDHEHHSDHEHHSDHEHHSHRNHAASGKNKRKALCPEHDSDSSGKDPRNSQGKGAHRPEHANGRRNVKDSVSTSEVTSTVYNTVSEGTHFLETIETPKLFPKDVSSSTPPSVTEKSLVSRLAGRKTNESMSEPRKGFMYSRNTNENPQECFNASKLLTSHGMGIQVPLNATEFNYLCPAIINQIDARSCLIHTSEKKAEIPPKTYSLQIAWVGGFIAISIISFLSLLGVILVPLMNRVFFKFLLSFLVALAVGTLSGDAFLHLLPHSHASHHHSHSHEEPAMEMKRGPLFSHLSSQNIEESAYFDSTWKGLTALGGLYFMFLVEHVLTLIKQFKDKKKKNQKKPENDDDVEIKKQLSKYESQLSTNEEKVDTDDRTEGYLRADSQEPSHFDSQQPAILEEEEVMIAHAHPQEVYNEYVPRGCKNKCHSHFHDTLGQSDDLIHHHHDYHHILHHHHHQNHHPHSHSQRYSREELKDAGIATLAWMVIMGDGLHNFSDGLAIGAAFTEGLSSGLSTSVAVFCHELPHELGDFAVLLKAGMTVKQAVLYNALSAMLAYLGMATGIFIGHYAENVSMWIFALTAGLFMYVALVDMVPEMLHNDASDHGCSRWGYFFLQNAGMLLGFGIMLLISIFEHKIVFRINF
Method: as §1, with “recombinant cyno” for “recombinant”, “in” for “into”, “were” for “were then”, “cytometry,” for “cytometery,”, “murine LIV-1 mAb” for “humanized BR2-22a antibody”

human LIV-1 [4] = target: T1, human LIV-1; assay: comparison of the EC50s of Table 3, CHO cells expressing human LIV-1
Method: as §1, with “recombinant human” for “recombinant”, “in PBS/BSA” for “in PBS”, “with PBS/BSA.” for “with PBS.”, “were” for “were then”, “flow cytometry,” for “flow cytometery,”, “labeled murine LIV-1 mAb” for “labeled humanized BR2-22a antibody”

human LIV-1 [5] = target: T1, human LIV-1; assay: competition flow cytometry, CHO cells expressing human LIV-1, vs 5 nM AF647-labelled BR2-14a
Method: as §1, with “recombinant human” for “recombinant”, “in PBS/BSA” for “in PBS”, “with PBS/BSA.” for “with PBS.”, “were” for “were then”, “flow cytometry,” for “flow cytometery,”, “labeled murine LIV-1 mAb” for “labeled humanized BR2-22a antibody”

human LIV-1 [6] = target: T1, human LIV-1; assay: saturation binding of AF647-labelled antibody, flow cytometry, CHO (hLIV-1) cells
Method: (§2) 1×10⁵ antigen expressing cells (either MCF7 cells (ATCC) expressing human LIV-1, a transfected CHO cell line expressing human LIV-1 or a transfected CHO cell line expressing cyno LIV-1) were aliquoted per well of a 96-well v-bottom plates. […] Cells were pelleted and washed 3× with PBS/BSA. The cells were then pelleted and resuspended in 125 μL of PBS/BSA. Fluorescence was analyzed by flow cytometry, using percent of saturated fluorescent signal to determine percent bound and to subsequently calculate apparent Kd.

human LIV-1 [7] = target: T1, human LIV-1; assay: saturation binding of AF647-labelled antibody, flow cytometry, MCF-7 (ATCC) cells, endogenous hLIV-1
Method: as §2

cynomolgus monkey LIV-1 [8] = target: T3, cynomolgus monkey LIV-1; assay: saturation binding of AF647-labelled antibody, flow cytometry, CHO (cyLIV-1) cells
Method: as §2

human LIV-1 [9] = target: T1, human LIV-1; assay: saturation binding of AF647-labelled antibody, flow cytometry, 293F (hLIV-1) cells
human LIV-1 [10] = target: T1, human LIV-1; assay: saturation binding, flow cytometry, comparison of the cell lines of Table 1
Method: as §2

human LIV-1 [11] = target: T2, human LIV-1; assay: saturation binding, flow cytometry on MCF7 cells; AF-labeled
human LIV-1 [12] = target: T1, human LIV-1; assay: saturation binding, flow cytometry, MCF7 cells
Method: as §2

human LIV-1 [13] = target: T2, human LIV-1; assay: saturation binding on CHO cells; apparent Kd
human LIV-1 [14] = target: T1, human LIV-1; assay: saturation binding of AF647-labelled antibody, flow cytometry, CHO hLIV-1 cells
Method: as §2, with “cells” for “cells (ATCC)”, “LIV-1, 293F cells,” for “LIV-1,”, “cytometery,” for “cytometry,”
(§3) The KD for the murine Liv1 of BR2-22a (Table 5) was determined for human LIV-1 expressed as an endogenous protein in a human breast cancer cell line, in 293F cells or as a recombinant protein in a CHO cell line. The KD for BR2-22a was also determined for cyno LIV-1 expressed as a recombinant protein in a CHO cell line.

cynomolgus monkey LIV-1 [15] = target: T3, cynomolgus monkey LIV-1; assay: saturation binding of AF647-labelled antibody, flow cytometry, CHO cyLIV-1 cells
Method: as §2, with “cells” for “cells (ATCC)”, “LIV-1, 293F cells,” for “LIV-1,”, “cytometery,” for “cytometry,”
as §3

human LIV-1 [16] = target: T2, human LIV-1; assay: competition binding
human LIV-1 [17] = target: T1, human LIV-1; assay: saturation binding of AF647-labelled antibody, flow cytometry, 293F (hLIV-1) cells; remark: listed apart in the source
Method: as §2, with “cells” for “cells (ATCC)”, “LIV-1, 293F cells,” for “LIV-1,”, “cytometery,” for “cytometry,”
as §3

human LIV-1 [18] = target: T1, human LIV-1; assay: saturation binding of AF647-labelled antibody, flow cytometry, MCF7 (ATCC) cells, endogenous hLIV-1
Method: as §2, with “cells” for “cells (ATCC)”, “LIV-1, 293F cells,” for “LIV-1,”, “cytometery,” for “cytometry,”
as §3

EC50 (human LIV-1 [1]): 0.3 mg/L
B4: humanized BR2-22a antibody HELF (antibody, V domains shown)
VH: QVQLVQSGAEVKKPGASVKVSCKASGLNIEDYYMHWVRQAPGQGLEWIGWIDPENGDTEYGPKFQGKATMTADTSINTAYMELSRLRSDDTAVYYCTVHNAHYGTWFAYWGQGTLVTVSS
VL: DVVMTQSPLSLPVTLGQPASISCRSSQSLLHSSGNTYLEWYLQRPGQSPKPLIYKISTRFSGVPDRFSGSGSGTDFTLKISRVEAEDVGVYYCFQGSHVPYTFGGGTKVEIKR
notes: 15 backmutations; also called hLIV-22 HE + hLIV-22 LF; HELF historic control

EC50 (human LIV-1 [1]): 0.2 mg/L
B5: humanized BR2-22a antibody HELG (antibody, V domains shown)
VH: B4 VH
VL: B4 VL with L42Q, K50R
notes: also called hLIV-22 HE + hLIV-22 LG

EC50 (human LIV-1 [1]): 0.8 mg/L
B6: humanized BR2-22a antibody HFLG (antibody, V domains shown)
VH: B4 VH with N28T, I48M, K67R, A68V, A72R, N77S, T97A
VL: B4 VL with L42Q, K50R
notes: also called hLIV-22 HF + hLIV-22 LG

EC50 (human LIV-1 [1]): 0.4 mg/L
B7: humanized BR2-22a antibody HGLF (antibody, V domains shown)
VH: B4 VH with N28T, I48M, K67R, A68V, A72R, T97A
VL: B4 VL
notes: also called hLIV-22 HG + hLIV-22 LF

EC50 (human LIV-1 [1]): 0.8 mg/L
B8: humanized BR2-22a antibody HFLF (antibody, V domains shown)
VH: B4 VH with N28T, I48M, K67R, A68V, A72R, N77S, T97A
VL: B4 VL
notes: also called hLIV-22 HF + hLIV-22 LF

Kd (human LIV-1 [6]): 12.5 nM
Kd (human LIV-1 [7]): 2.4 nM
EC50 (human LIV-1 [2]): 3.42 mg/L
Kd (cynomolgus monkey LIV-1 [8]): 14 nM
Kd (human LIV-1 [9]): 2.7 nM
fold lower dissociation constant for non-recombinant LIV-1 of a human cell line than for recombinant LIV-1 (human LIV-1 [10]): ~5 fold
Kd (human LIV-1 [11]): 0.8 µg/mL and 5.8 nM
Kd (human LIV-1 [12]): 2.9 nM
B11: murine LIV-1 monoclonal antibody BR2-14a (antibody, V domains shown)
VH: QVQLQQSGAELVRSGASVKLSCTASGFNIEDYYMHWVKQRPKQGLEWIGWIDPENGDTEYAPTFQGKATMTADTSSNTAYLQLSSLTSEDTAVYYCNVHDAHYGTWFAYWGQGTLVTVSA
VL: DVLMTQTPLSLPVSLGDQASISCRSSQSIIRNDGNTYLEWYLQKPGQSPKLLIYRVSNRFSGVPDRFSGSGSGTDFTLKISRVEAEDLGVYYCFQGSHVPYTFGGGTKLEIKR
notes: Mouse monoclonal from hybridoma ATCC PTA-5705A; also called parental murine mAb; murine LIV-1 mAb

Kd (human LIV-1 [13]): 1.2 nM
Kd (human LIV-1 [14]): 1.5 nM
Kd (cynomolgus monkey LIV-1 [15]): 4.2 nM
EC50 (human LIV-1 [16]): 0.3 mg/L
Kd (human LIV-1 [17]): 0.5 nM
Kd (human LIV-1 [18]): 1.1 nM
B12: mouse monoclonal antibody BR2-22a (antibody, mouse IgG1, V domains shown)
VH: B11 VH with Q1E, F27L, K42E, A61G, T63K, E89G, N97T, D100N
VL: B4 VL with V3L, S7T, T14S, Q17D, P18Q, V88L, V90L, V109L
notes: also called mAb2; parental BR2-22a

The next lines start with the binder.

B1: humanized BR2-22a antibody HELA (antibody, V domains shown)
VH: B4 VH
VL: B4 VL with Y41F, L42Q, K50R, P51R
notes: also called hLIV-22 HE + hLIV-22 LA
EC50 (human LIV-1 [1]): 68.2 mg/L

B2: humanized BR2-14a antibody HBLB S239C (antibody, human IgG1, kappa, V domains shown)
VH: QVQLVQSGAEVKKPGASVKVSCKASGYTIEDYYMHWVRQAPGQGLEWMGWIDPENGDTEYAPTFQGRVTMTRDTSINTAYMELSRLRSDDTAVYYCARHDAHYGTWFAYWGQGTLVTVSS
VL: DVVMTQSPLSLPVTLGQPASISCRSSQSIIRNDGNTYLEWYQQRPGQSPRRLIYRVSNRFSGVPDRFSGSGSGTDFTLKISRVEAEDVGVYYCFQGSHVPYTFGGGTKVEIKR
notes: also called LIV-14d; hLIV-14 HBLB S239C
EC50 (human LIV-1 [2]): 0.419 mg/L
binding result (cynomolgus monkey LIV-1 [3]): binds

B3: humanized BR2-14a antibody HELE (antibody, V domains shown)
VH: B4 VH with L27F, G61A, K63T, T97N, N100D
VL: B2 VL with Y41F, R51L
notes: also called hLIV-1 HE + hLIV-1 LE
fold better binding than the next humanized antibody HBLF (human LIV-1 [4]): ≥ 2 fold
EC50 (human LIV-1 [5]): 0.3 mg/L

B9: humanized BR2-22a antibody HELE (antibody, V domains shown)
VH: B4 VH
VL: B4 VL with Y41F, L42Q, K50R
notes: also called hLIV-22 HE + hLIV-22 LE
EC50 (human LIV-1 [1]): 25.1 mg/L

B10: humanized BR2-22a antibody HELC (antibody, V domains shown)
VH: B4 VH
VL: B4 VL with Y41F, K50R, P51R
notes: also called hLIV-22 HE + hLIV-22 LC
EC50 (human LIV-1 [1]): 65.7 mg/L
